Source: the supplement of paper PMC7877785
± gives the uncertainty stated by the source.

Assay: self-splicing fitness, log relative to wild type (ln ratio); higher = more splicing; Tetrahymena group I intron in knt gene, E. coli kanamycin selection, DiMSum; sequences stand for … in CUCUCU…GGAGGGAAAAGUUAUCAGGCAUGCACCUGGUAGCUAGUCUUUAAACCAAUAGAUUGCAUCGGUUUAAAAGGCAAGACCGUCAAAUUGCGGGAAAGGGGUCAACAGCCGUUCAGUACCAAGUCUCAGGGGAAACUUUGAGAUGGCCUUGCAAAGGGUAUGGUAAUAAGCUGACGGACAUGGUCCUAACCACGCAGCCAAGUCCUAAGUCAACAGAUCUUCUGUUGAUAUGGAUGCAGUUCACAGACUAAAUGUCGGUCGGGGAAGAUGUAUUCUUCUCAUAAGAUAUAGUCGGACCUCUCCUUAAUGGGAGCUAGCGGAUGAAGUGAUGCAACACUGGAGCCGCUGGGAACUAAUUUGUAUGCGAAAGUAUAUUGAUUAGUUUUGGAGUACUCGUGGUCG
Summary of the method: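 Colonies from six replicate transformations of E. coli BL21(DE3) were pooled and amplicon-sequenced on an Illumina HiSeq 2500. The library placed an intron with all eight P1ex-region nucleotides randomised inside the knt kanamycin-resistance gene on pET-22b(+), and cells grew overnight at 37°C or 30°C on LB agar with or without 25 μg/mL kanamycin (plus 100 μg/mL carbenicillin, 50 μM IPTG, 0.2% rhamnose). Fitness is the DiMSum error-weighted combination of wild-type-normalised replicate fold changes, kanamycin versus none.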

Sequence	self-splicing fitness (ln) (30 °C)	self-splicing fitness (ln) (37 °C)
AGUAAGCAAUAUUACGUAAA	-3.2 ± 0.34	-1.75 ± 0.21
CACAAGCAAUAUUACGCCAA	-2.76 ± 0.27	-2.01 ± 0.21
CUCAAGCAAUAUUACGUACC	-4.45 ± 0.34	-2.04 ± 0.23
UAACAGCAAUAUUACGCCUG	-0.264 ± 0.085	0.182 ± 0.11
GAAAAGCAAUAUUACGCUGG	-2.57 ± 0.2	-1.24 ± 0.25
AUCAAGCAAUAUUACGGAUC	-3.29 ± 0.25	-1.91 ± 0.21
GGCGAGCAAUAUUACGAUUG	-2.49 ± 0.13	-2.05 ± 0.2
UAAAAGCAAUAUUACGCAUA	-1.44 ± 0.088	-0.782 ± 0.1
UGAUAGCAAUAUUACGACCU	-1.09 ± 0.17	-0.0258 ± 0.18
AGCAAGCAAUAUUACGAGUC	-3.5 ± 0.16	-1.84 ± 0.14
CCCCAGCAAUAUUACGCACG	-2.64 ± 0.11	-2.2 ± 0.17
GACUAGCAAUAUUACGGGUA	-0.752 ± 0.076	-0.669 ± 0.078
ACCGAGCAAUAUUACGGUGG	-2.91 ± 0.13	-3.14 ± 0.29
CAAGAGCAAUAUUACGGAAC	-3.74 ± 0.17	-2.52 ± 0.19
GUGAAGCAAUAUUACGGGGU	-3.53 ± 0.16	-1.45 ± 0.14
GAGGAGCAAUAUUACGAUCG	-2.15 ± 0.22	-1.2 ± 0.32
ACCGAGCAAUAUUACGUCAC	-3.34 ± 0.27	-2 ± 0.21
UCCUAGCAAUAUUACGUCCG	-3.98 ± 0.25	-3.81 ± 0.34
AGUUAGCAAUAUUACGCGGG	-4.1 ± 0.33	-0.533 ± 0.15
GUGGAGCAAUAUUACGGCUA	-1.06 ± 0.48	-0.218 ± 0.35
UCCGAGCAAUAUUACGCCAA	–	-2.4 ± 0.49

Sequence	self-splicing fitness (ln) (30 °C)	self-splicing fitness (ln) (37 °C)
UGAGAGCAAUAUUACGAUAU	–	-2.8 ± 0.44
AUAGAGCAAUAUUACGGAUU	-0.783 ± 0.091	-0.15 ± 0.14
UUCCAGCAAUAUUACGCCUU	-2.28 ± 0.1	-0.957 ± 0.096
GCGCAGCAAUAUUACGCGCU	–	-1.41 ± 0.28
UGGAAGCAAUAUUACGGAAA	-1.8 ± 0.41	-1.43 ± 0.4
AAGAAGCAAUAUUACGUCAC	-3.46 ± 0.21	-3 ± 0.28
GUAAAGCAAUAUUACGCCUA	-0.413 ± 0.14	0.493 ± 0.19
GCUUAGCAAUAUUACGCAGA	-2.62 ± 0.22	-3.24 ± 0.43
CUCAAGCAAUAUUACGAUGC	-3.9 ± 0.15	-2.95 ± 0.17
CCCUAGCAAUAUUACGGGCA	-2.16 ± 0.22	-1.55 ± 0.2
UCCCAGCAAUAUUACGAAUC	-2.49 ± 0.26	-1.93 ± 0.3
AAGUAGCAAUAUUACGUACG	-1.29 ± 0.088	-0.0022 ± 0.11
AAUUAGCAAUAUUACGAUAU	-0.45 ± 0.093	0.012 ± 0.12
CACAAGCAAUAUUACGUCUG	-1.34 ± 0.07	-0.0931 ± 0.074
UAUUAGCAAUAUUACGCCUU	-0.78 ± 0.27	-0.885 ± 0.36
GUCUAGCAAUAUUACGUUAG	-2.42 ± 0.16	-2.28 ± 0.21
AUAAAGCAAUAUUACGGUUG	-1.68 ± 0.1	-1.36 ± 0.15
AAGUAGCAAUAUUACGUGUG	-2.07 ± 0.099	-1.15 ± 0.094
GACUAGCAAUAUUACGGUUG	-1.25 ± 0.072	-0.449 ± 0.092
GAUGAGCAAUAUUACGCCAA	-2.45 ± 0.26	-2.61 ± 0.29
AGAAAGCAAUAUUACGUACA	-0.839 ± 0.075	-0.379 ± 0.1

Sequence	self-splicing fitness (ln) (30 °C)	self-splicing fitness (ln) (37 °C)
CAUUAGCAAUAUUACGCGCU	-2.9 ± 0.21	-1.51 ± 0.26
AAGAAGCAAUAUUACGGUUG	-2.72 ± 0.092	-1.32 ± 0.11
UGACAGCAAUAUUACGUCUC	-4.29 ± 0.34	-1.47 ± 0.22
GUGAAGCAAUAUUACGGCCA	-0.0192 ± 0.11	0.468 ± 0.15
AUGUAGCAAUAUUACGAGCA	-1.07 ± 0.11	-1.07 ± 0.12
UCCGAGCAAUAUUACGGGGU	-2.7 ± 0.2	-2.45 ± 0.28
AAAUAGCAAUAUUACGAUAG	-3.17 ± 0.27	-2.49 ± 0.23
UUUCAGCAAUAUUACGUAGA	-1.72 ± 0.076	-0.283 ± 0.092
UAUCAGCAAUAUUACGUACG	-0.641 ± 0.087	0.404 ± 0.11
CACCAGCAAUAUUACGACUA	-0.763 ± 0.12	-1.3 ± 0.17
CCCGAGCAAUAUUACGCCAU	-3.53 ± 0.35	-2.44 ± 0.33
AGUCAGCAAUAUUACGGCAU	0.126 ± 0.066	-0.106 ± 0.074
UGCCAGCAAUAUUACGUUGA	-2.21 ± 0.074	-1.26 ± 0.082
AACAAGCAAUAUUACGCAAC	-3.89 ± 0.22	-1.63 ± 0.12
GGUGAGCAAUAUUACGUAAG	-3.05 ± 0.45	-2.22 ± 0.28
GUUAAGCAAUAUUACGCGAC	-3.02 ± 0.21	-2.15 ± 0.22
AUGGAGCAAUAUUACGAGAU	-3.73 ± 0.28	-1.96 ± 0.2
GACUAGCAAUAUUACGAAAA	-2.41 ± 0.25	-0.685 ± 0.15
CCGGAGCAAUAUUACGUGGC	-3.77 ± 0.39	–
